Laboratory results reported in publication PMC5290461.

Target: GST-β1A-integrin tails (UniProt P05556)
Assay: pull-down; different concentrations of purified His-tagged talin head incubated with glutathione agarose beads preloaded with GST-β1A-integrin tails or GST; lysis buffer A (50 mM Tris-HCl pH 7.4, 1% NP-40, 150 mM NaCl, 1 mM EDTA, protease inhibitors) with 0.5 mg/ml bovine gelatin; bound protein on SDS-PAGE, Coomassie blue, quantified against standards on the same gel; Kd fitted with SigmaPlot

Sequence of UniProt P05556 (P05556 21-798): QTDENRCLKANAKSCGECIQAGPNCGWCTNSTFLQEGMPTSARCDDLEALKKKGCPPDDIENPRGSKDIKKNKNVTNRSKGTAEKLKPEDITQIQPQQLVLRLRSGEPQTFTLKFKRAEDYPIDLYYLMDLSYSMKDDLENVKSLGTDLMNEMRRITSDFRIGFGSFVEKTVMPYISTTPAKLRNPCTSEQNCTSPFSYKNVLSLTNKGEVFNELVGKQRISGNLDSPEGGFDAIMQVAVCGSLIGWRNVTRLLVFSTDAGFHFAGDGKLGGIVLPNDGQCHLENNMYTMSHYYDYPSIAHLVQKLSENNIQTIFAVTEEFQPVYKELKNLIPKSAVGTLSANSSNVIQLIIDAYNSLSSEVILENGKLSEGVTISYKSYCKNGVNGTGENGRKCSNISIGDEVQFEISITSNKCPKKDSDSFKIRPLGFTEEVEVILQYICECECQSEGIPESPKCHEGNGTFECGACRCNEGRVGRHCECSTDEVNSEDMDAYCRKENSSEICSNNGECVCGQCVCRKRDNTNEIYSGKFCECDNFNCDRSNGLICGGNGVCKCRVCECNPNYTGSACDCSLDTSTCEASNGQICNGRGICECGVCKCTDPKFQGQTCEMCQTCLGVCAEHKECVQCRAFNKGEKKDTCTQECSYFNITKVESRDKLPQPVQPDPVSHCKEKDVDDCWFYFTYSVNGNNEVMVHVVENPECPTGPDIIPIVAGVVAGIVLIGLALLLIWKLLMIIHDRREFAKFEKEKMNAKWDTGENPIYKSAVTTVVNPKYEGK

Kd [nM]	Substance
880	His-tagged talin1(1-446) WT (from UniProt Q9Y490 1-446) (domain or fragment)
350	His-tagged talin2(1-449) WT (from UniProt Q9Y4G6 1-449) (domain or fragment)
